In PMC5961147 (Nucleic Acids Research, 2018):

Molecular target: the molecule itself
Assay: cross-linking

B1: Flag-SART3 (natural protein, UniProt Q15020 1-963, looked up)
chain: MATAAETSASEPEAESKAGPKADGEEDEVKAARTRRKVLSRAVAAATYKTMGPAWDQQEEGVSESDGDEYAMASSAESSPGEYEWEYDEEEEKNQLEIERLEEQLSINVYDYNCHVDLIRLLRLEGELTKVRMARQKMSEIFPLTEELWLEWLHDEISMAQDGLDREHVYDLFEKAVKDYICPNIWLEYGQYSVGGIGQKGGLEKVRSVFERALSSVGLHMTKGLALWEAYREFESAIVEAARLEKVHSLFRRQLAIPLYDMEATFAEYEEWSEDPIPESVIQNYNKALQQLEKYKPYEEALLQAEAPRLAEYQAYIDFEMKIGDPARIQLIFERALVENCLVPDLWIRYSQYLDRQLKVKDLVLSVHNRAIRNCPWTVALWSRYLLAMERHGVDHQVISVTFEKALNAGFIQATDYVEIWQAYLDYLRRRVDFKQDSSKELEELRAAFTRALEYLKQEVEERFNESGDPSCVIMQNWARIEARLCNNMQKARELWDSIMTRGNAKYANMWLEYYNLERAHGDTQHCRKALHRAVQCTSDYPEHVCEVLLTMERTEGSLEDWDIAVQKTETRLARVNEQRMKAAEKEAALVQQEEEKAEQRKRARAEKKALKKKKKIRGPEKRGADEDDEKEWGDDEEEQPSKRRRVENSIPAAGETQNVEVAAGPAGKCAAVDVEPPSKQKEKAASLKRDMPKVLHDSSKDSITVFVSNLPYSMQEPDTKLRPLFEACGEVVQIRPIFSNRGDFRGYCYVEFKEEKSALQALEMDRKSVEGRPMFVSPCVDKSKNPDFKVFRYSTSLEKHKLFISGLPFSCTKEELEEICKAHGTVKDLRLVTNRAGKPKGLAYVEYENESQASQAVMKMDGMTIKENIIKVAISNPPQRKVPEKPETRKAPGGPMLLPQTYGARGKGRTQLSLLPRALQRPSAAAPQAENGPAAAPAVAAPAATEAPKMSNADFAKLFLRK
With B1 the “stoichiometry N” value was 2.
